Measured values as given in US20180355043A1.

Columns and labels:
Test in all cases: MSD ECL; antigen coated; protocol of Example 3
[1] = target: DR4G97: Human HLA-DRA1*01:02/DRB1*15:01 ECD with collagen II peptide CII_1236-1249 (human)
[2] = target: DR4G112: Human HLA-DQA1*01:02/DQB1*06:02 ECD with PLP peptide PLP_178-186 (human)
[3] = target: DR4G102: Human HLA-DRA1*01:02/DRB1*01:01 ECD with collagen II peptide CII_257-273 (human)
[4] = target: DR4G146 (HLA DQB2:01, peptide CLIP) (human)
[5] = target: DR4G96: Human HLA-DRA1*01:02/DRB1*01:01 ECD with CLIP peptide (human)
[6] = target: DR4G86: Human HLA-DRA1*01:02/DRB1*04:01 ECD with CLIP peptide (human)
[7] = target: DR4G92: Human HLA-DRA1*01:02/DRB1*04:01 ECD with collagen II peptide CII_257-273 (human)
[8] = target: DR4G117: Human HLA-DRA1*01:02/DRB1*03:01 ECD with Collagen II peptide CII_1236-1249 (human)
[9] = target: DR4G107 (HLA DPB4:01, peptide CLIP) (human)
[10] = target: DR4G99: Human HLA-DRA1*01:02/DRB1*01:01 ECD with collagen peptide CII_1236-1249 (human)
[11] = target: DR4G145 (HLA DQB2:01, peptide CLIP) (human)
[12] = target: DR4G110: Human HLA-DRA1*01:02/DRB1*04:01 ECD with aggrecan peptide N1 (human)
[13] = target: DR4G101: Human HLA-DRA1*01:02/DRB1*04:02 ECD with collagen II peptide CII_257-273 (human)
[14] = target: DR4G142: Human HLA-DRA1*01:02/DRB1*03:01 ECD_VimentineL70A (human)
[15] = target: DR4G115 (HLA DPB4:01, peptide LCAP) (human)
DR4G115 (HLA DPB4:01, peptide LCAP) (human), sequence (P20036 29-222, chain 1 of 2): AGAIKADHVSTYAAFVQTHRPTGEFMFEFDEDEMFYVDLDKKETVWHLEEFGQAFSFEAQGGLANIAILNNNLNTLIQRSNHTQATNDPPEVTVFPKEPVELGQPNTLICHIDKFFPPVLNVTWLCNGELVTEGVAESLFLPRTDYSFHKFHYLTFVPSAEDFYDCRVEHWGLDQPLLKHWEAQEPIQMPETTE
DR4G115 (HLA DPB4:01, peptide LCAP) (human), sequence (P04440 30-225, chain 2 of 2, further chain): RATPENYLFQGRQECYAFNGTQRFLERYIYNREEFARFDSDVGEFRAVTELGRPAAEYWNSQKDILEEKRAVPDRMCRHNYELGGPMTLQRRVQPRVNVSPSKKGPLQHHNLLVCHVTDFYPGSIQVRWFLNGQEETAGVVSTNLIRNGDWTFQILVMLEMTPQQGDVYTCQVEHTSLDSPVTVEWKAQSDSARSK

[16] = target: DR4G98: Human HLA-DRA1*01:02/DRB1*04:02 ECD with collagen II peptide CII_1236-1249 (human)
[17] = target: DR4G143: Human HLA-DRA1*01:02/DRB1*04:01 ECD_VimentineL70A (human)

In the case of Isotype control (antibody), the ECL signal [1] is reported as 393 ECL, the ECL signal [2] is reported as 250 ECL and the ECL signal [3] is reported as 392 ECL. For the same substance, the ECL signal [4] was 1470 ECL, the ECL signal [5] was 781 ECL and the ECL signal [6] was 335 ECL. The ECL signal [7] was 486 ECL, the ECL signal [8] was 603 ECL and the ECL signal [9] was 153 ECL. It also gave an ECL signal [10] of 490 ECL, an ECL signal [11] of 2780 ECL and an ECL signal [12] of 1030 ECL. It also gave an ECL signal [13] of 1250 ECL, an ECL signal [14] of 2220 ECL and an ECL signal [15] of 91 ECL. It also gave an ECL signal [16] of 613 ECL and an ECL signal [17] of 410 ECL.
